Reference: patent US20230064326A1, “OPTOGENETIC COMPOSITIONS COMPRISING A CBh PROMOTER SEQUENCE AND METHODS FOR USE” (Vedere Bio II, Inc., priority 2021, published 2023)

Test system: NHP retinas
Test: SNAP immunostaining to visualize SNAP-mGluR2 expression in NHP retinas
Type: in vivo, Cynomolgus macaques and African Green monkeys
Settings: non-human primates; central and peripheral retina

B1: CBh promoter: promoter of SEQ ID NO: 1: CMV enhancer, chicken beta actin promoter and hybrid intron; in b245 driving SNAP-mGluR2 (nucleic acid)
DNA: CGTTACATAACTTACGGTAAATGGCCCGCCTGGCTGACCGCCCAACGACCCCCGCCCATTGACGTCAATAATGACGTATGTTCCCATAGTAACGCCAATAGGGACTTTCCATTGACGTCAATGGGTGGAGTATTTACGGTAAACTGCCCACTTGGCAGTACATCAAGTGTATCATATGCCAAGTACGCCCCCTATTGACGTCAATGACGGTAAATGGCCCGCCTGGCATTATGCCCAGTACATGACCTTATGGGACTTTCCTACTTGGCAGTACATCTACGTATTAGTCATCGCTATTACCATGGTCGAGGTGAGCCCCACGTTCTGCTTCACTCTCCCCATCTCCCCCCCCTCCCCACCCCCAATTTTGTATTTATTTATTTTTTAATTATTTTGTGCAGCGATGGGGGCGGGGGGGGGGGGGGGGCGCGCGCCAGGCGGGGCGGGGCGGGGCGAGGGGCGGGGCGGGGCGAGGCGGAGAGGTGCGGCGGCAGCCAATCAGAGCGGCGCGCTCCGAAAGTTTCCTTTTATGGCGAGGCGGCGGCGGCGGCGGCCCTATAAAAAGCGAAGCGCGCGGCGGGCGGGAGTCGCTGCGACGCTGCCTTCGCCCCGTGCCCCGCTCCGCCGCCGCCTCGCGCCGCCCGCCCCGGCTCTGACTGACCGCGTTACTCCCACAGGTGAGCGGGCGGGACGGCCCTTCTCCTCCGGGCTGTAATTAGCTGAGCAAGAGGTAAGGGTTTAAGGGATGGTTGGTTGGTGGGGTATTAATGTTTAATTACCTGGAGCACCTGCCTGAAATCACTTTTTTTCAG
modifications: misc_feature 1..812 CBH promoter sequence
notes: in b245 driving SNAP-mGluR2
- expression of a SNAP-mGluR2 transgene, promoter comparison (CBh vs synapsin): much more robust expression
